Numbering of substitutions follows the chain as printed.
T1: His-tagged mouse CD38 (ACRO Biosystems #CD8-M5223) (mouse, UniProt P56528 45-304)
T1 construct: bought recombinant protein with His tag; also called Murine
T1 sequence (looked up): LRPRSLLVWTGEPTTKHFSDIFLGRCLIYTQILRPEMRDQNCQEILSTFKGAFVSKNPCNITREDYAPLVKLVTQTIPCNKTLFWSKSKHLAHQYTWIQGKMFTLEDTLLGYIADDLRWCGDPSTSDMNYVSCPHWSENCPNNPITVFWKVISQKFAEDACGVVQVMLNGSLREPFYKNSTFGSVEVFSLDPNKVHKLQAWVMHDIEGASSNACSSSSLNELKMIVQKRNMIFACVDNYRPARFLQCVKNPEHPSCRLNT

T2: murine CD38 on transiently transfected Expi293 cells (Origene MC208001) (murine, UniProt P56528 1-304)
T2 construct: whole, on cells; also called Murine (FACs)
T2 sequence (looked up): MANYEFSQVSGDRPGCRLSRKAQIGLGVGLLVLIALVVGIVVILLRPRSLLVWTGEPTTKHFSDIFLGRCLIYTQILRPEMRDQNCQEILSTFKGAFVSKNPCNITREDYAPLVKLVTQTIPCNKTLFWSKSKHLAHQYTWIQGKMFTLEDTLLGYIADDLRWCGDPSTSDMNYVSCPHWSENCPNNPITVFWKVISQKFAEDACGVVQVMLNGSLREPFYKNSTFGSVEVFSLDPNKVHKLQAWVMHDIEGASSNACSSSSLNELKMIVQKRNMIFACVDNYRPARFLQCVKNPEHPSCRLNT

B1: 40566p1.A7 (scFv, V domains shown)
VH: RELVESGGGVVRPGESLRLSCAASGFTFDNYDMTWVRQAPGEGLEWVSFISSRGTFTYYTDSVRGRFTISRDNSKNTLYLEMNSLRAEDTAIYYCAKDSGEYYFFDYWGLGTLVTVSS
VL: EIVMTQSPATLSVSPGERATFSCRASQSVNSKLAWYQQKPGQAPRLLIYGASRRATGIPDRFSGSGSGTEFTLTISSLQSEDFAVYYCQQYYDWPPLTFGGGTKVEIK
notes: tested as scFv-Fc supernatant
B2: 40566p1.D2 (scFv, V domains shown)
VH: DVQLVESGGGVVRPGESLRLSCAASGFTFDNYDMTWVRQAPGEGLEWVSFISSRGTFTYYTDSVKGRFTISRDNSKNTLYLQMNSLRAEDTAIYYCTKDSGEYYFFDYWGLGTLVTVSS
VL: B1 VL
notes: tested as scFv-Fc supernatant
B3: 40566p1.A8 (scFv, V domains shown)
VH: B2 VH with T97A
VL: B1 VL
notes: tested as scFv-Fc supernatant
B4: 40566p1.A9 (scFv, V domains shown)
VH: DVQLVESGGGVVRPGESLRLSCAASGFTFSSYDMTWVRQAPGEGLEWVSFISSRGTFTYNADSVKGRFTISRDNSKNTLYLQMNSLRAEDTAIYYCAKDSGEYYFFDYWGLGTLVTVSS
VL: B1 VL with T5M
notes: tested as scFv-Fc supernatant
B5: 40566p1.A12 (scFv, V domains shown)
VH: B2 VH
VL: B1 VL with G50D
notes: tested as scFv-Fc supernatant; also called 40566p1.Al2
B6: 40566p1.B3 (scFv, V domains shown)
VH: B2 VH with K65R, Q82E, T97A
VL: B1 VL
notes: tested as scFv-Fc supernatant
B7: 40566p1.B11 (scFv, V domains shown)
VH: B2 VH with V11L, T97A
VL: B1 VL with G64E, Y92H
notes: tested as scFv-Fc supernatant
B8: 40566p1.B12 (scFv, V domains shown)
VH: B2 VH with T56I, T61A, T97A
VL: B1 VL
notes: tested as scFv-Fc supernatant
B9: 40566p1.C1 (scFv, V domains shown)
VH: B2 VH
VL: B1 VL with I2T
notes: tested as scFv-Fc supernatant
B10: 40566p1.C9 (scFv, V domains shown)
VH: B2 VH
VL: B1 VL with I2T, G50D, Y87F
notes: tested as scFv-Fc supernatant
B11: 40566p1.C11 (scFv, V domains shown)
VH: B2 VH
VL: B1 VL with M4L, A9G, V13L, F21L, S28T, N30G, Y49F, G50S, R53S, D60A
notes: tested as scFv-Fc supernatant
B12: 40566p1.D12 (scFv, V domains shown)
VH: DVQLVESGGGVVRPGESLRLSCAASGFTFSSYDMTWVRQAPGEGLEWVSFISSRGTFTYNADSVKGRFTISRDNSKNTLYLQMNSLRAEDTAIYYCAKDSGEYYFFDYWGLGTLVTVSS
VL: B1 VL
notes: tested as scFv-Fc supernatant
B13: 40566p1.F1 (scFv, V domains shown)
VH: B2 VH
VL: B1 VL with I2T, S31G, G50D
notes: tested as scFv-Fc supernatant; also called 40566p1.Fl
B14: 40566p1.G9 (scFv, V domains shown)
VH: B2 VH with T61A, T97A
VL: B1 VL
notes: tested as scFv-Fc supernatant
B15: 40566p1.G12 (scFv, V domains shown)
VH: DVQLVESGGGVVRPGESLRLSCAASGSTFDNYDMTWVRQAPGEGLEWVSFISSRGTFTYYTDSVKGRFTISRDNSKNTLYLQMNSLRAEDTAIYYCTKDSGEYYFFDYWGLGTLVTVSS
VL: B1 VL with G50D
notes: tested as scFv-Fc supernatant
B16: 40596p1.H7 (scFv, V domains shown)
VH: EVQLLESGGGLVQPGGSLRLSCAASGFDFSTYAMTWVRQAPGKGLEWVAGNGWSGSFTYYADSVKGRFTVSRDNSKNTLYLQMNSLRAEDTAVYYCTRNPGFGEMDVWGQGTTVTVSS
VL: EIVLTQSPGTLRLSPGERATLSCRASQTVGTTLAWYQQKPGQAPRLLIHGASTRATDIPDRFSGSGSGTEFTLTISSLQSEDFADYYCQQYKSWPPLTFGGGTKVEIK
notes: tested as scFv-Fc supernatant
B17: 40769p1.1.G12 (scFv, V domains shown)
VH: EVQLLESGGGLVQPGGSLRLSCAASGFTFDDYVMSWVRQAPGKGLEWVSEISESDGSNKYYADSVKGRFIISRDNSKNTLYLQMNSLRAEDTAVYYCARLEPEKYYGMDVWGQGTTVTVSS
VL: QSVLTQPPSASGTPGQRVTISCSGSNSNIGNNLVSWYQQLPGTAPKLLIYRHDHRPSGVPDRFSGSKSGTSASLAISGLQSEDEADYYCATWDDSLNGRAFGGGTKLTVL
notes: tested as scFv-Fc supernatant
B18: 40769p1.1.H10 (scFv, V domains shown)
VH: EVQLLESGGGLVQPGGSLRLSCAAFGFTFSDYEMNWVRQAPGKGLEWVSSISITGSWTGYADSVKGRFTISRDNSKNTLYLQMNNLRAEDTAVYYCANYKSYYGMDVWGQGTTVTVSS
VL: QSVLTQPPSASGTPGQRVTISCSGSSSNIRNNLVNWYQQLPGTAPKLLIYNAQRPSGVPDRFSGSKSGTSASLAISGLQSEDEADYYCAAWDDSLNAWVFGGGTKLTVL
notes: tested as scFv-Fc supernatant

How the values were obtained:
[1] = biological target: T3, His-tagged human CD38 (ACRO Biosystems cat #CD8-H5224) (human, UniProt P28907 43-300); experiment: ELISA, coated His-CD38
T3 construct: bought recombinant protein with His tag

[2] = biological target: T4, His-tagged cynomolgus monkey CD38 (ACRO Biosystems cat #CD8-05223) (cynomolgus monkey, UniProt Q5VAN0 43-301); experiment: ELISA, coated His-CD38
T4 construct: bought recombinant protein with His tag

[3] = biological target: T1, His-tagged mouse CD38 (ACRO Biosystems …); experiment: ELISA, coated His-CD38
[4] = biological target: T3, His-tagged human CD38 (ACRO Biosystems …); experiment: SPR, captured scFv-Fc, His-CD38 analyte;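 also: SPR on a Carterra LSA, scFv-Fc captured by anti-human Fc on HC30M chip, His-tagged CD38 (human, mouse, cynomolgus) flowed as analyte in eight 1:2 steps from 400 nM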
[5] = biological target: T4, His-tagged cynomolgus monkey CD38 (ACRO …); experiment: SPR, captured scFv-Fc, His-CD38 analyte;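 also: SPR on a Carterra LSA, scFv-Fc captured by anti-human Fc on HC30M chip, His-tagged CD38 (human, mouse, cynomolgus) flowed as analyte in eight 1:2 steps from 400 nM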
[6] = biological target: T1, His-tagged mouse CD38 (ACRO Biosystems …); experiment: SPR, captured scFv-Fc, His-CD38 analyte;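 also: SPR on a Carterra LSA, scFv-Fc captured by anti-human Fc on HC30M chip, His-tagged CD38 (human, mouse, cynomolgus) flowed as analyte in eight 1:2 steps from 400 nM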
[7] = biological target: T5, human CD38 on transiently transfected Expi293 cells (Origene #SC321273) (human, UniProt P28907 1-300); experiment: flow cytometry, transfected Expi293 cells;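 also: antibody binding to Expi293 cells transiently expressing human or murine CD38, antibodies applied at 10 ug/ml for 60 min on ice, read by flow cytometry as percent gated cells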
T5 construct: whole, on cells; also called Human (FACs)

[8] = biological target: T2, murine CD38 on transiently transfected …; experiment: flow cytometry, transfected Expi293 cells;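 also: antibody binding to Expi293 cells transiently expressing human or murine CD38, antibodies applied at 10 ug/ml for 60 min on ice, read by flow cytometry as percent gated cells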

| Binder | ELISA 1 ug/ml [1] | ELISA 1 ug/ml [2] | ELISA 1 ug/ml [3] | Kd [4] [nM] | Kd [5] [nM] | Kd [6] [nM] | FACs 10 ug/ml (percent gated) [7] [%] | FACs 10 ug/ml (percent gated) [8] [%] |
| --- | --- | --- | --- | --- | --- | --- | --- | --- |
| B1 | 1.99 | 1.85 | 2.12 | 202000 | 2.66 | 1.31 | 14.2 | 72.8 |
| B2 | 1.96 | 1.83 | 1.74 | 11.8 | 29.8 | 1.74 | 20.1 | 71.2 |
| B3 | 1.87 | 1.9 | 1.9 | 0.872 | – | 5.81 | 17.8 | 70.8 |
| B4 | 1.87 | 1.88 | 2.02 | – | – | 0.918 | 19.1 | 75.9 |
| B5 | 1.98 | 1.89 | 1.99 | – | – | 1.03 | 25.2 | 72.6 |
| B6 | 1.89 | 1.81 | 1.93 | 43800 | 5.68 | 1.32 | 21.1 | 74.1 |
| B7 | 1.43 | 1.44 | 1.24 | 104 | 549 | 224 | 6.05 | 49.9 |
| B8 | 1.72 | 1.6 | 1.62 | 470000 | – | 25.6 | 8.31 | 57.7 |
| B9 | 1.92 | 1.74 | 1.86 | 465 | – | 0.478 | 26.4 | 75.3 |
| B10 | 1.83 | 1.66 | 1.97 | 0.269 | 4.67 | 0.351 | 31.3 | 76.9 |
| B11 | 1.87 | 1.7 | 1.6 | – | – | 1.97 | 11.9 | 64.5 |
| B12 | 1.98 | 1.96 | 1.83 | – | – | 0.967 | 20.8 | 74.8 |
| B13 | 1.83 | 1.95 | 2.17 | – | 3880 | 0.375 | 32 | 76 |
| B14 | 1.82 | 1.86 | 1.93 | – | – | 4.8 | 17.8 | 70.7 |
| B15 | 1.58 | 1.62 | 1.65 | – | – | 2.07 | 7.52 | 68.5 |
| B16 | 1.94 | 1.89 | – | 86.7 | 114 | 51.6 | 71.7 | 62.8 |
| B17 | 1.45 | 1.08 | 0.056 | 1.88 | 11.4 | – | 68.4 | 0.16 |
| B18 | 1.7 | 1.96 | 0.048 | 1.95 | 2.85 | – | 79 | 0.12 |

From patent US20220306762A1 (CRYSTAL BIOSCIENCE, published 2022)
